Binding result, Kd and koff data for one molecule are collected here from PMC11743104, “Potent human antibodies against SpA5 identified by high-throughput single-cell sequencing of phase I clinical volunteers’ B cells” (iScience, 2024).

The target of one assay is T1, KLH-(N847-S857) (Staphylococcus aureus, protein A …).
T1 construct: stretch N847-S857 of SpA5; they were put together from the eleven consecutive residues in the docking list; also called synthetic peptide N847-S857; source: synthetic peptide, coupled to keyhole limpet hemocyanin (KLH)
T1 chain: NEEQRNGFIQS
The assay can be described thus: ELISA; KLH-(N847-S857) coated at 2 ug/mL; Abs-9 from 2 ug/mL in PBST, diluted in half; 37 C 1 h; goat anti-human IgG Fc-HRP, OD450; SpA5 positive control, KLH negative control. The note with it: both partners purified. Background: An ELISA detects its analyte on a solid surface through an enzyme-linked reagent.

For assay [1], the target named is T2, mutant staphylococcal protein A (SpA5) (Staphylococcus aureus, recombinant …, point mutant).
T2 construct: staphylococcal protein A, mutant 'pentameric form' (SpA5), component of the recombinant five-component S. aureus vaccine; The residue numbers printed for SpA5 (E790 to N893) come from the docked model; also called antigen SpA5; pentameric form of S. aureus protein A; source: recombinant antigenic protein (vaccine component of rFSAV)
As to the kind of experiment: BLI; Octet RED96, room temperature, PBS with 0.01% Tween 20; Abs-9 (8 ug/mL) loaded on Pro A biosensor; SpA5 in double dilutions 53 uM to 6.63 uM, 600 s association, 600 s dissociation. Conditions: both partners purified. (In general: In BLI a coated tip is dipped into the sample, and binding shifts an interference pattern.)

Assay [2] concerns the target T3, S. aureus protein A in MRSA252 bacterial fluid (Staphylococcus aureus MRSA252 (stand-in …, UniProt P02976, strain)).
T3 construct: staphylococcal protein A as it is present in strain MRSA252; The lysate of MRSA252 can hold only the native protein A, not the recombinant mutant SpA5; also called SpA; source: endogenous, MRSA252 ultrasonically fragmented and centrifuged, supernatant
As to the kind of experiment: affinity purification with mass spectrometry; supernatant of ultrasonically fragmented MRSA252 incubated overnight with Abs-9 (200 uL, 8 mg/mL), bound to Protein A beads 2 h, eluate to mass spectrometry. Conditions: one partner purified.

As usually defined, the Kd is the constant that tells how readily two partners part at equilibrium. Usually koff stands for the rate constant with which the complex falls apart.

B1: human antibody Abs-9 (antibody, V domains shown)
VH: QVQLQQWGAGLLKPSETLSLTCAVYGGSFSGYYWSWIRQPPGKGLEWIGEINHSGSTNYNPSLKSRVTISVDTSKNQFSLKLSSVTAADTAVYYCARRSYGVKPFDYWGQGTLVTVSS
VL: SSELTQDPAVSVALGQTVRITCQGDSLRTYYASWYQQKPGQAPALVIYGKNNRPSGIPDRFFGSSSGNTASLTITGAQAEDEADYYCNSRDSSGNHHPVFGGGTKLTVL
notes: germline VH3-48 gene; also called IgG-9; source: 293F cells, transfected (heavy and light chain plasmids, PEI), purified from supernatant on Protein A beads
As to B1, in the assay with KLH-(N847-S857), the binding result is listed as “binds”. In addition, in assay [1], the dissociation constant (Kd) worked out at 1.96 nM and the koff stood at 5.63e-07 s⁻¹. For the same molecule, the binding result in assay [2] is “binds”.
